A word on the Kd: it is a measure of binding affinity in units of concentration. Broadly, the koff is a measure of how fast the partners let go of each other. As usually defined, the kon is the rate constant with which the complex forms. Higher therefore signals faster complex formation.

“And” between values parts separate entries of the source, which are not always exact repeats. Equal values may be shown once.

These results are taken from publication PMC12797016.

Test [1] has as its target LC8 (dynein light chain, DYNLL1/DYNLL2) (Homo sapiens) (UniProt P63167). Kind of test: ITC. Conditions: cited from earlier work.
Sequence of UniProt P63167 (P63167 whole entry): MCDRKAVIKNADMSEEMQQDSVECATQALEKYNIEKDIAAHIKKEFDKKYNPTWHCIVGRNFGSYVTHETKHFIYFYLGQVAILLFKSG
The target is the same in test [2]. Nature of the test: ITC. Conditions: cited from earlier work. This is another data set of the same source.
Test [3] has the same target. Nature of the test: ITC. Particulars: cited from earlier work. The source holds these as a separate data set.
The target is the same in test [4]. Kind of test: ITC. Conditions: cited from earlier work. This is another data set of the same source.
Test [5] shares this target. Kind of test: ITC. Conditions: cited from earlier work. The source holds these as a separate data set.
Test [6] has the same target. Nature of the test: ITC. Particulars: cited from earlier work. The source holds these as a separate data set.
Test [7] has the same target. Nature of the test: ITC. Conditions: cited from earlier work. This is another data set of the same source.
Test [8] shares this target. Kind of test: ITC. Particulars: cited from earlier work. The source holds these as a separate data set.
The target is the same in test [9]. Kind of test: ITC. Particulars: cited from earlier work. The source holds these as a separate data set.
The target is the same in test [10]. Nature of the test: ITC. Particulars: cited from earlier work. The source holds these as a separate data set.
Test [11] shares this target. Kind of test: ITC. Particulars: cited from earlier work. The source holds these as a separate data set.
Test [12] shares this target. Nature of the test: ITC. Particulars: cited from earlier work. The source holds these as a separate data set.
The target is the same in test [13]. Nature of the test: ITC. Particulars: cited from earlier work. This is another data set of the same source.
The target is the same in test [14]. Nature of the test: ITC. Conditions: cited from earlier work. This is another data set of the same source.
Test [15] has the same target. Kind of test: ITC. Particulars: cited from earlier work. The source holds these as a separate data set.
For test [16] the target is unchanged. Kind of test: ITC. Particulars: cited from earlier work. The source holds these as a separate data set.
Test [17] has the same target. Nature of the test: ITC. Particulars: cited from earlier work. The source holds these as a separate data set.
Test [18] shares this target. Nature of the test: ITC. Conditions: cited from earlier work. The source holds these as a separate data set.
The target of test [19] is 6xHis-tagged rGKAP_(655–711) (Rattus norvegicus) (UniProt P97836). Kind of test: BLI; 6xHis-tagged rGKAP655-711 immobilised on Ni-NTA biosensors (5 ug/mL, 90 s); LC8 dimers 3.125-50 uM, association and dissociation 90 s each; kinetic buffer 50 mM sodium phosphate, 20 mM NaCl, pH 6.0, 20 mM imidazole, 0.1% BSA, 0.02% Tween 20, 0.02% NaN3; sensors hydrated at 25 °C; global fit; BLItz. (BLI is a label-free optical method that tracks binding on a fibre tip over time.)

For test [20], the target named is rGKAP_(655–711), LC8-binding segment of Rattus norvegicus guanylate kinase-associated protein (GKAP), His tag removed (Rattus norvegicus) (UniProt P97836). Kind of test: dynamic light scattering; particle size of GKAP, LC8 dimer and their complex at 20 °C; W130i DLS device.
For test [21], the target named is LC8 (dynein light chain, DYNLL1/DYNLL2) (Homo sapiens) (UniProt P63167). Nature of the test: ITC. Particulars: cited from earlier work. This is another data set of the same source.
Test [22] has the same target. Kind of test: ITC. Particulars: cited from earlier work. The source holds these as a separate data set.

With 53BP1, the Kd was 1 µM in test [1], 0.62 µM in test [2] and 5.2 µM in test [3].
With AKAP9, in [1], the Kd was 12.4 µM.
Consider ALMS1, for which the Kd in [1] is 19.2 µM.
As to AMOT, in test [1], the Kd is 1.2 µM.
As for AMOTL1, in test [1], the Kd is 1.55 µM.
For the substance AMOTL2, the Kd in test [1] is 1.98 µM.
Turning to ASCIZ, the Kd was 14 µM in test [4]; 36 µM in test [5]; 15 µM in [6]; 7 µM in test [7]; 20 µM in test [1]; 11 µM in test [8]. Further, the Kd is 15 µM in [9], 10 µM in test [10] and 9.3 µM in test [11].
Consider Bim, for which the Kd in test [1] was 0.52 µM.
As for CDK5RAP2, the Kd in test [1] was 12.5 µM.
As to CEP152, the Kd in test [1] was 2.37 µM.
With CFAP91, the Kd in test [1] was 0.55 µM.
Turning to EML3, the Kd in test [1] is 0.05 µM.
On to GKAP, for which, in test [1], the Kd was 2.4 µM.
Take IC: the Kd in test [1] is 3 µM.
For IQUB, in test [1], the Kd is 3.57 µM.
As for Kib1, the Kd in test [1] is 0.45 µM.
For the substance Kib2, the Kd in test [1] was 4 µM.
Regarding L-MAG, the Kd in test [1] was 7.3 µM.
With LCA5, the Kd in test [1] was 2.6 µM and 8.1 µM.
MAP4: the Kd in test [1] is 4.42 µM.
On to Myosin Va, for which, in [1], the Kd is 8.85 µM.
Consider NEK9, for which the Kd in test [1] is 0.16 µM.
In the case of NUP159, the Kd in test [1] was 1 µM.
With OFD1, in [1], the Kd is 12.5 µM and 12.8 µM.
Turning to Pak1, the Kd in test [1] is 42.7 µM.
For Restv, in test [1], the Kd is 62.1 µM.
Consider SAO-1, for which the Kd in test [1] and in test [12] was 0.5 µM throughout.
On to Sudv, for which the Kd in [1] is 6.45 µM.
Swa: the Kd in test [1] was 0.62 µM.
Consider WWC1, for which the Kd in test [1] is 4 µM; in [13] it was 0.45 µM.
On to WWC2, for which the Kd is 17.6 µM in [14] and 32.7 µM in [1].
Regarding WWC3, the values for the Kd in test [1] and in [15] were 5.34 µM and 3.5 µM, respectively.
In the case of ana2, the Kd in [1] was 12.8 µM; in test [16] it was 1.14 µM.
Turning to bmf, the Kd in [1] is 0.79 µM.
For the substance dyn intermediate chain (ICTL), the Kd in test [17] is 8 µM; in [1], 0.5 µM; in test [18] it was 8 µM.
In [19], “dynein light chain LC8 (DYNLL2, DLC2), Rattus norvegicus, dimer (natural protein)” displayed a Kd of 0.29 µM, a koff of 0.0025 s⁻¹ and a kon of 8800 M⁻¹ s⁻¹. Moreover, the stoichiometry N (LC8 dimers per GKAP segment (2 : 2)) in test [20] was 1.
Take myosin Va: the equilibrium dissociation constant (Kd) in test [1] is 9 µM.
As to nNOS, in [1], the Kd is 5.41 µM and 7 µM.
As to protein panoramix, the Kd is 0.14 µM in test [1] and 0.075 µM in test [21].
As for vp35 virus, the Kd in test [22] and in test [1] was 3.91 µM throughout.
